Two molecules from publication PMC11162772, “FUS reads histone H3K36me3 to regulate alternative polyadenylation” can be followed below.

Data set [1] addresses FUS-ΔZNF (UniProt P35637 1-421+454-526, internal_change). Briefly: MST; no significant decrease vs WT; MST: PBS with 0.05% BSA and 0.05% Tween-20, 5 nM Cy5-RNA, temperature not stated; nucleosome pull-down buffer not given. The settings on record: protein: recombinant; tags: GST (pGEX-6p-2); label: 3' Cy5.
The target in data set [2] is FUS P421L (so in the source) (UniProt P35637 1-526, P431L). Briefly: MST; slightly increased affinity vs WT; MST: PBS with 0.05% BSA and 0.05% Tween-20, 5 nM Cy5-RNA, temperature not stated; nucleosome pull-down buffer not given. The settings on record: protein: recombinant; tags: GST (pGEX-6p-2); label: 3' Cy5.
FUS P421L (so in the source), sequence (P35637 whole entry P431L): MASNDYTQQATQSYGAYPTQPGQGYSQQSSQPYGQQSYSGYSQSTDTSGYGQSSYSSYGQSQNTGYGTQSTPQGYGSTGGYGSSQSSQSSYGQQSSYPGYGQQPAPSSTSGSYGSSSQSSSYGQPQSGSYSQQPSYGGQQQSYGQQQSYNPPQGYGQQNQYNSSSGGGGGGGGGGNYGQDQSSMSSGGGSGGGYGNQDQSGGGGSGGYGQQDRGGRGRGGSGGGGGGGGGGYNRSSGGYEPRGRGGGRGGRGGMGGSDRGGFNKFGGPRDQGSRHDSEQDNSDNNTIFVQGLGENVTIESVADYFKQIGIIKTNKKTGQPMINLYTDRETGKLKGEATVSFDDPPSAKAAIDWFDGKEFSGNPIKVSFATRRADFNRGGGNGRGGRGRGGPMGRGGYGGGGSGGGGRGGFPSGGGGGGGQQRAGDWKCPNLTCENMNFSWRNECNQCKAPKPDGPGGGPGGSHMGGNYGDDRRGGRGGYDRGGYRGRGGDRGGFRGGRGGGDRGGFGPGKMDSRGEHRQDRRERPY

FUS-ΔZNF, sequence (P35637 other isoform, or with tags, fused parts or gaps | mutant): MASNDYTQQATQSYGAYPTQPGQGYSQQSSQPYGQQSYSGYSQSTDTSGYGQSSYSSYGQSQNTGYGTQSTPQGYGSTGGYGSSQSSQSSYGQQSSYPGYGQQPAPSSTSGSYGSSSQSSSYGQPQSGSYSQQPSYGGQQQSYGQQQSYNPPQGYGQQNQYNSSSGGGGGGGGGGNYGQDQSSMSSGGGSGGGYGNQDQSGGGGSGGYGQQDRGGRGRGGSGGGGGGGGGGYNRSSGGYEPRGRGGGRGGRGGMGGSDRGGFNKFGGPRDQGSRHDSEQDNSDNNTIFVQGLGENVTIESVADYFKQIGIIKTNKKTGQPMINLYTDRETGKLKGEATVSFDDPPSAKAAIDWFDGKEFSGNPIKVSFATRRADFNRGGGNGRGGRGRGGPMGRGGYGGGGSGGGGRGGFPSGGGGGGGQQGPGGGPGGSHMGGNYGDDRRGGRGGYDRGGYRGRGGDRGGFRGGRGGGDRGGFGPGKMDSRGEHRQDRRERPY

Regarding UUAGGGUUAGGGUUAGGGUUAGGG (ssRNA) [4XUUAGGG-3'Cy5], the binding result in data set [1] is “binds”.

On to GGUGGGUGGGUGGGUGGGUG (ssRNA) [5XGGUG-3'Cy5], for which the binding result in data set [1] and in data set [2] was “binds” in each case.
